Assay results from patent US20230159643A1 (H LUNDBECK A S, published 2023).
Blank lines part the entries; values can stand above or below the binder they belong to.

Key:
Test in all cases: BLI Octet 384RED (Example 8), Sortilin construct in solution
[1] = target: T1, Sortilin SORTECDBAP_hB45678 (human/tetraodon chimera)
T1 construct: Shuffle construct
T1 chain: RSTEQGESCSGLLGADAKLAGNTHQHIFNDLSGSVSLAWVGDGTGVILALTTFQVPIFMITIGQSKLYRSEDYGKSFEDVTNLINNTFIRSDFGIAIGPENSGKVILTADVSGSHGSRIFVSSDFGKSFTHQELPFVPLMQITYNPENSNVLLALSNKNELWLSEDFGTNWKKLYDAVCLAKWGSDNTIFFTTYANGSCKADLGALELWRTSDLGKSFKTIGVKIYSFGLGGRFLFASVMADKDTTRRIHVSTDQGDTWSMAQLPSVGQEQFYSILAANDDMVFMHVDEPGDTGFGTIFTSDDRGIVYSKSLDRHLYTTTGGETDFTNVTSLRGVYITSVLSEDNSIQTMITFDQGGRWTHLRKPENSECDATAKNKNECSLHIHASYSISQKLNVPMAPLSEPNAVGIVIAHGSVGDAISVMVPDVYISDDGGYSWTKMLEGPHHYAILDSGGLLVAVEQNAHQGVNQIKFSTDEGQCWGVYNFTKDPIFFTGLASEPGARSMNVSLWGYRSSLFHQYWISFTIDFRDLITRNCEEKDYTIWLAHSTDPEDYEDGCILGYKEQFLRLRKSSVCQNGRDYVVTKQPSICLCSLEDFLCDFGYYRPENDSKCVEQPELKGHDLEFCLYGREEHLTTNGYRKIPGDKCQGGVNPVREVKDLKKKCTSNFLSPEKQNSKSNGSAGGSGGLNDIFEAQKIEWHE
Method: (§1) Binding kinetics of anti-Sortilin HuMab antibodies to Sortilin were determined using Octet 384RED (Fortebio, Menlo Park, USA). HuMab solutions of 2 μg/ml were made by dilution in sample diluent (ForteBio, art. No. 18-5028). Prot A sensors (ForteBio, art. no. 18-0004) were prewetted with kinetics buffer (1:10 sample diluent in PBS) for at least 600 seconds. Subsequently sensors were immobilized with HuMab solution for 600 seconds. A baseline response was obtained by dipping in kinetics buffer for 120 seconds. Association of SORTECD constructs was performed during a 1000 seconds incubation. This was followed by dissociation in kinetics buffer for 100 seconds. After dissociation, sensors were regenerated (10 mM Glycine pH 1.0) and neutralized (kinetics buffer) 3 times for 5 seconds. […] A molecular weight of 76.8 kDA was used for SORTECDHis. Data was fitted with ForteBio Analysis 6.4 software, using a global full fit.

[2] = target: T2, Sortilin SORTECDBAP_hB12390 (human/tetraodon chimera)
T2 construct: Shuffle construct
T2 chain: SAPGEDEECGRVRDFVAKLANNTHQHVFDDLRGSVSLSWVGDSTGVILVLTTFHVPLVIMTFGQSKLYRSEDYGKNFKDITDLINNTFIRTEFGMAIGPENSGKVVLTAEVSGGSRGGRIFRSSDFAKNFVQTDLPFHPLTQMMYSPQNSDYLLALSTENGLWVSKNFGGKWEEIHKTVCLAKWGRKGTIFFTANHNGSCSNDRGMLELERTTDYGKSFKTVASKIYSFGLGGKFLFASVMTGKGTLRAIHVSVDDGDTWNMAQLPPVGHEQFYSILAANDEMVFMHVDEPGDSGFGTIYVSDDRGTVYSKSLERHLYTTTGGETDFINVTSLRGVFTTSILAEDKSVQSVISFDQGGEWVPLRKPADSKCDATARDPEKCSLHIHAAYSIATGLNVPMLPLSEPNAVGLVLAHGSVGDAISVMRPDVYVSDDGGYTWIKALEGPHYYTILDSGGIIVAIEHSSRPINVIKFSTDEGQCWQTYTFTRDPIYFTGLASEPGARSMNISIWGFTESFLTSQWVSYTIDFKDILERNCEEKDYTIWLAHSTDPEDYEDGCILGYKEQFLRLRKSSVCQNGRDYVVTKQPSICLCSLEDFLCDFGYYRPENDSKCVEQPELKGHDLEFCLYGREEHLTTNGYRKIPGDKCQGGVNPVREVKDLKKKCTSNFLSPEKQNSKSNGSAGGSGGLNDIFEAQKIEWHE
Method: as §1

[3] = target: T3, Sortilin SORTECDBAP_hB01-05 (human/tetraodon chimera)
T3 construct: Shuffle construct
T3 chain: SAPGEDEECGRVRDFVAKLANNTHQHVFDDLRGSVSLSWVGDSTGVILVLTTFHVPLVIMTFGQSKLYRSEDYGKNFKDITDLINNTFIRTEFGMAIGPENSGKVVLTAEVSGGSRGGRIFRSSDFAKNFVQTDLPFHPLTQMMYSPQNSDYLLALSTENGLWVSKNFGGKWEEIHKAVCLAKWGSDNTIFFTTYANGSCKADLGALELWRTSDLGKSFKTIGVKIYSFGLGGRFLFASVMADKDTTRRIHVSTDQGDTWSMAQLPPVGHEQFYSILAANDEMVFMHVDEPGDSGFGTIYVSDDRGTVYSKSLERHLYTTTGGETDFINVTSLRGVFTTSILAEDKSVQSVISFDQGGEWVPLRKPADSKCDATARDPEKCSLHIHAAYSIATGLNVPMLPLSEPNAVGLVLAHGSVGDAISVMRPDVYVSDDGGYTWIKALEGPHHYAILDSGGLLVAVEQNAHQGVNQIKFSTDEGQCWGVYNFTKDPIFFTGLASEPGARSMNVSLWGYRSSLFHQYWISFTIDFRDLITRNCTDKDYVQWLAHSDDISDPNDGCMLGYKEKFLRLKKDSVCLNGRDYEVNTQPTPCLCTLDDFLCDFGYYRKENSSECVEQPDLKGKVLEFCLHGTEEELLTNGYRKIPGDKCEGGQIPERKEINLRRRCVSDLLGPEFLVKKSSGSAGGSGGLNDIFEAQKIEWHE
Method: as §1

binding result [1]: no binding (tested: 10 µg/ml construct)
EC50 [2]: 0.59 ng/mL
binding result [3]: no binding (tested: 10 µg/ml construct)
B1: Antibody 5E1 (antibody, V domains shown)
VH: EVHLVESGGDLVNPGGSLKLSCEASGFIFSIYGMSWVRQTPDKRLEWVAMISSGGIYTQYPDSVKGRFTISRDNAKNTLYLQMSGLKSEDTGTYHCTRHDDSWFAYWGQGTLVTVSA
VL: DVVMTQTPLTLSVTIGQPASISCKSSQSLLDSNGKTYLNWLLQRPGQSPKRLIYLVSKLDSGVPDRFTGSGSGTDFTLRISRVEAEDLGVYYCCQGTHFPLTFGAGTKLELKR
notes: Mouse anti-human Sortilin monoclonal antibody from hybridoma (BALB/c), purified on protein G; Assigned to the D Region; also called 5E1F6; Ab 5E1

binding result [1]: no binding (tested: 10 µg/ml construct)
EC50 [2]: 1.1 ng/mL
binding result [3]: no binding (tested: 10 µg/ml construct)
B2: Antibody 1F2 (antibody, V domains shown)
VH: EVQLVESGGDLVKPGGSLKLSCAASGFTFSSYGMSWVRQTPDKRLEWVAIISSGGSYTHYPDSVKGRFTISRDNAKNTLYLQMSSLKSEDTAMYYCARLCGPLCSGYWGQGTSVTVSS
VL: QAVVTQESALTTSPGETVTLTCRSSTGAVTTSNYANWVQEKPDHLFTGLIGGTNNRAPGVPARFSGSLIGDKAALTITGAQTEDEAIYFCALWYSNHFWVFGGGTKLTVLG
notes: Mouse anti-human Sortilin monoclonal antibody from hybridoma (BALB/c), purified on protein G; Assigned to the D Region; also called 1F2F4; Ab 1F2
